Positions count from the first letter of the chain named. One block for each binder: values may come before it.
Target: T1, Recombinant NT antigen (N-terminal pro-brain natriuretic peptide, NT-proBNP) (human, UniProt P16860 27-102)
T1 construct: domain: N-terminal pro-brain natriuretic peptide (NT-proBNP); also called recombinant NT protein; N-terminal pro-B-type natriuretic peptide
T1 sequence (looked up): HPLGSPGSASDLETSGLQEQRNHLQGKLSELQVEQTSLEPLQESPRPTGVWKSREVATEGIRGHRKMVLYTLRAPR
Experiment: indirect ELISA, KD calculated from half-max OD at 4 coating concentrations
In short: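 Plates coated overnight at 4 °C with recombinant NT antigen at 3, 1.5, 0.75 or 0.375 μg/ml, blocked with 20% BSA. Antibody, 2-fold dilutions from 1000 to 0.977 ng/ml, was incubated 30 min at 37 °C, then detected with HRP anti-IgG, OD450/630. KD was derived from half-max OD across coating levels.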

- Kd: 1.51 nM
B4: Mutation 1-35 (antibody)
heavy: QVRLQESGPSQVKPAQTLSLTCAISGFSVTTYYVDWVRHTPGKPPEWLAQMTKDGNAVHQPTIRSRLSITRDTSKSQVFLKLTGVTTEDTAVYYCVRGVIDFGPGLLVTVSSASTTPPKVYPLTSCCGDTSSSIVTLGCLVSSYMPEPVTVTWNSGALTSGVHTFPAILQSSGLYSLSSVVTVPASTSGAQTFICNVAHPASSTKVDKRVEPGCPDPCKHCRCPPPELPGGPSVFIFPPKPKDTLTISGTPEVTCVVVDVGQDDPEVQFSWFVDNVEVRTARTKPREEQFNSTFRVVSALPIQHQDWTGGKEFKCKVHNEGLPAPIVRTISRTKGQAREPQVYVLAPPQEELSKSTLSVTCLVTGFYPDYIAVEWQKNGQPESEDKYGTTTSQLDADGSYFLYSRLRVDKNSWQEGDTYACVVMHEALHNHYTQKSISKPPGK
light: QAVLTQPSSVSRSLGQTVSITCSGSSDQVGFGDYVNWFQLIPGSAPKTLIFGAYSRVRGVPDRFSGSRSGNTATLTINSLQAEDEADYYCGSPNSRGGYVFGSGTRLTVLSQPKSAPSVTLFPPSKEELDTNKATVVCLISDFYPGSVNVVWKADGSTINQNVKTTQASKQSNSKYAASSYLTLTGSEWKSKSSYTCEVTHEGSTVTKTVKPSECS

- Kd: 2.93 nM
B5: Mutation 1-43 (antibody)
heavy: B4 heavy with V34L, I63V, V99I
light: B4 light with Q28N, V35L, Y54S, V57L, P93A

- Kd: 1.53 nM
B6: Mutation 1-45 (antibody)
heavy: B4 heavy with V29I, V34I, I63L, V99L
light: B4 light with V35I, Y54S, V57I

- Kd: 2.82 nM
B9: Mutation 1-41 (antibody, V domains shown)
VH: QVRLQESGPSQVKPAQTLSLTCAISGFSVTTYYIDWVRHTPGKPPEWLAQMTKDGNAVHNPTVRSRLSITRDTSKSQVFLKLTGVTTEDTAVYYCVRGIIDWGPGLLVTVSS
VL: QAVLTQPSSVSRSLGQTVSITCSGSSDNVGFGDYINWFQLIPGSAPKTLIFGAYSRVRGVPDRFSGSRSGNTATLTINSLQAEDEADYYCGSGNSRNYVFGSGTRLTVLS

- Kd: 1.26 nM
B11: Mutation 1-44 (antibody, V domains shown)
VH: B9 VH with I34V, V63L, I99L
VL: B9 VL with I35V, Y54S, G93A

- Kd: 3.47 nM
B12: Mutation 1-40 (antibody, V domains shown)
VH: B9 VH with V29L, I34L, N60Q, I99V
VL: B9 VL with I35L, V57L, G93P

- Kd: 3.49 nM
B13: Mutation 1-46 (antibody, V domains shown)
VH: B9 VH with V29I, I34L, V63I, I99V
VL: QAVLTQPSSVSRSLGQTVSITCSGSSDQVGFGDYLNWFQLIPGSAPKTLIFGASSRLRGVPDRFSGSRSGNTATLTINSLQAEDEADYYCGSPNSRGGYVFGSGTRLTVLS

The next lines start with the binder.

B1: Mutation 1-17 (antibody)
heavy: B4 heavy with Q60N, I63V
light: QAVLTQPSSVSRSLGQTVSITCSGSSDNVGFGDYINWFQLIPGSAPKTLIFGATSRVRGVPDRFSGSRSGNTATLTINSLQAEDEADYYCGSGNSRNYVFGSGTRLTVLSQPKSAPSVTLFPPSKEELDTNKATVVCLISDFYPGSVNVVWKADGSTINQNVKTTQASKQSNSKYAASSYLTLTGSEWKSKSSYTCEVTHEGSTVTKTVKPSECS
- Kd: 3.39 nM

B2: Mutation 1-23 (antibody)
heavy: B4 heavy with V29L
light: B4 light
- Kd: 0.81 nM

B3: Mutation 1-29 (antibody)
heavy: B4 heavy with V29I, Q60N, I63V
light: B1 light with T54S
- Kd: 1.49 nM

B7: Mutation 1-19 (antibody)
heavy: B4 heavy with V29I, V34L, I63V, V99I
light: B1 light with I35L, V57L
- Kd: 1.51 nM

B8: Mutation 1-18 (antibody, V domains shown)
VH: B9 VH with V29I
VL: B9 VL with Y54T, V57I, G93P
- Kd: 1.73 nM

B10: Mutation 1-30 (antibody, V domains shown)
VH: B9 VH with V29L
VL: B9 VL with Y54T, V57I, G93P
- Kd: 2.66 nM
